Results as given in patent publication US20250270518A1, “NOVEL LUCIFERASES WITH IMPROVED PROPERTIES” (SVAR Life Science AB, priority 2021, published 2025).
Residue numbers refer to the chain shown, from its start. Entries after “also recorded” stand apart in the source; their conditions may differ.

B1: SVAR Luc-1: Engineered luciferase derived from Metridia longa luciferase, amino acid sequence SEQ ID NO: AA1, encoded by SEQ ID NO: 1 (protein)
chain: MEAEAERGKSPGKKLPLAVIMEIEANAFKAGCTRGCLICLSKIKCTAKMKVYIPGRCHDYGGDKKTGQAGIVGAIVDIPEISGFKEMEPMEQFIAQVDRCASCTTGCLKGLANVKCSELLKKWLPDRCASFADKIQKEVHNIKGMAGDR
modifications: NO.1 (1)..(450) SEQ ID NO.1
B2: SVAR Luc-2: Engineered luciferase derived from Metridia longa luciferase, isoleucine 106 to valine, SEQ ID NO: AA2, encoded by SEQ ID NO: 2 (protein)
chain: B1 chain with I94V
modifications: NO.2 (1)..(450) SEQ ID NO.2

Experiments:
[1] = tested on: NFkB recognition sequence chimeric promoter in HEK293 cells; assay: Clonal HEK293 cell line stably transfected with NFkB responsive reporter gene, increasing TNF (FIG. 7); assay type: cell-based, human; details: stable HEK293 clone, increasing TNF for 6 hours at 37° C., QuantiLuc Gold
Excerpt: FIG. 7 illustrates the response of a clonal cell line of HEK293 cells stably transfected with a reporter gene comprising the sequence set forth in SEQ ID NO: 1 under the control of a chimeric promoter consisting of a SV40 minimal promoter and a 6-fold tandem repeat of the canonical NFkB recognition sequence treated with increasing concentrations of TNF[…].
HEK293 cells were transfected with the Svar luciferase Luc-1 gene under the control of a chimeric promoter consisting a SV40 minimal promoter and a 6-fold tandem repeat of the canonical NFkB recognition sequence and stable clones were isolated and characterized.

[2] = tested on: HEK293 cells; assay: Transient transfection of HEK293 cells, luciferase genes under constitutive CMV promoter, luciferase activity in supernatant (FIG. 3A); assay type: cell-based, human; details: 18 hours at 37° C., QuantiLuc Gold, compared with native Metridia longa luciferase and other luciferases
Experimental: FIG. 3A illustrates the response of HEK293 cells following transient transfection of cells with the novel Svar vector encoding the luciferases genes indicated, each under the control of a constitutive CMV promoter, and co-transfection of cells with firefly luciferase under the control of a constitutive thymidine kinase (TK) promoter. Luciferase activity was quantified in the cell supernatant after 18 hours incubation of cells at 37° C. using a commercially available coelenterazine based “glo” substrate (QuantiLuc Gold, Invivogen). The cells were then lysed and firefly luciferase activity was quantified with BrightGlo (Promega).
A series of deletion mutants of the 5′ coding region of the native Metridia longa luciferase gene were designed in silico, synthetized in vitro and tested in transient transfection experiments. The nucleotide sequence of the native Metridia longa gene luciferase gene is illustrated in FIG. 1 and the amino acid sequence in FIG. 2.
A series of random mutation were introduced into the coding sequence of the native Metridia longa luciferase gene using oligonucleotides carrying a single or multiple mutations (FIG. 4). The oligonucleotides were synthetized in vitro and tested in transient transfection experiments in human the HEK293 cell line originally derived from human embryonic kidney cells grown in tissue culture (ATCC Catalogue CRL-1573).

[3] = tested on: NFkB recognition sequence chimeric promoter in K562 cells; assay: K562 clonal cell lines stably transfected with NFkB responsive reporter gene, increasing TNF (FIG. 8); assay type: cell-based, human; details: stable K562 clones, increasing TNF for 6 hours at 37° C., compared with firefly luciferase under same promoter
Excerpt: FIG. 8 illustrates a comparison of the response of K562 cells stably transfected with either the luciferase gene comprising the sequence set forth in SEQ ID NO: 1 under the control of a chimeric promoter consisting of a SV40 minimal promoter and a 6-fold tandem repeat of the canonical NFkB recognition sequence and K562 cells stably transfected with the firefly luciferase gene comprising the open reading frame encoding the firefly luciferase protein under the control of the same NFkB responsive promoter and treatment of cells with increasing concentrations of TNF[…] for 6 hours at 37° C.
K562 cells originally derived from a chronic myelogenous leukemia (ATCC, catalogue number CCL-243) were transfected with either the Svar luciferase Luc-1 gene or firefly luciferase gene each under the control of a chimeric promoter consisting a SV40 minimal promoter and a 6-fold tandem repeat of the canonical NFkB recognition sequence. Stable clones were isolated and characterized. The clonal cell lines were treated with increasing concentrations of TNF[…] for 6 hours at 37° C. (FIG. 8).

[4] = tested on: transfected mammalian cells; assay: Comparison of luciferase properties with other luciferases (Table 2); assay type: cell-based; details: relative to other native or engineered luciferases reported in the literature
Excerpt: FIG. 12 illustrates Table 2 showing a comparison of the properties of the luciferase encoded by the sequence set forth in SEQ ID NO: 1 and SEQ ID NO:2 and comprising the amino acid sequence encoded by the sequence set forth in AA1 and AA2 relative to those of other native or engineered luciferases reported in the literature.

[5] = tested on: HEK293 cells; assay: Rate of loss of luciferase activity in supernatant of transiently transfected HEK293 cells (FIG. 6); assay type: cell-based, human; details: CMV promoter, room temperature, QuantiLuc Gold, compared with wild type Metridia longa luciferase
Excerpt: FIG. 6A illustrates the rate of loss of luciferase activity in the supernatant of HEK293 cells following transient transfection of cells with the luciferases genes indicated, each under the control of a constitutive CMV promoter, and quantification of luciferase activity at increasing times at room temperature using a commercially available coelenterazine based “glo” substrate (QuantiLuc, Gold Invivogen).

[6] = tested on: NFkB recognition sequence chimeric promoter in HEK293 cells; assay: Transient transfection of HEK293 cells, luciferase genes under NFkB responsive chimeric promoter, treated with TNF (FIG. 3B); assay type: cell-based, human; details: compared with native Metridia longa luciferase gene; for luminescence / luciferase activity, relative light units (RLU): 100 ng/ml TNF for 6 hours at 37° C.
Experimental: FIG. 3B illustrates the response of HEK293 cells following transient transfection of cells with the novel Svar vector encoding either the wild type Metridia longa luciferase gene, or the Svar luciferase 1 or the Svar luciferase 2 genes each under the control of a chimeric promoter consisting of a SV40 minimal promoter and a 6-fold tandem repeat of the canonical NFkB recognition sequence and treated with 100 ng/ml of TNF[…] for 6 hours at 37° C. prior to quantification of the luciferase signal using a commercially available coelenterazine based “glo” substrate (QuantiLuc Gold, Invivogen).

Row | Molecule | relative light units (RLU) and fold induction relative to control not treated with TNF [1] | luciferase activity / light output (brightness), relative light units (RLU) [2] | relative light units (RLU) values [3] | toxicity for transfected mammalian cells [4] | signal stability and/or signal duration [5] | luminescence / luciferase activity, relative light units (RLU) [6] | luminescence / luciferase activity, relative light units (RLU) ([6]; listed as Svar luciferase 1) | dynamic range relative to control samples in the absence of the pharmacology active substance [6] | luciferase activity / light output (brightness), relative light units (RLU) ([2]; listed as Svar luciferase 2) | luminescence / luciferase activity, relative light units (RLU) ([6]; listed as Svar luciferase 2)
1 | B1 | high levels of both relative light units (RLU) and fold induction | increased light output (brightness) | markedly higher relative light units (RLU) values | absence of toxicity | increased signal stability and/or signal duration | increased luminescence including increased light output (brightness) | enhanced luciferase activity relative to the wild type gene | higher dynamic range |  | 
2 | B2 |  | improved activity relative to the native Metridia longa luciferase; also recorded: equivalent or slightly reduced activity relative to SVAR Luc-1 luciferase |  |  | increased signal stability and/or signal duration | increased luminescence including increased light output (brightness) |  | higher dynamic range | increased light output (brightness) | enhanced luciferase activity relative to the wild type gene
